# Patent US20240409645A1 (DUALYX, published 2024)
# T1: human IL-2Rγ (common cytokine receptor γ-chain) (human, UniProt P31785 23-262, limits assumed)
# T1 construct: Recombinant protein coated on the plate or immobilised on a CM5 chip; also called hu IL-2R; CD132
# T1 sequence: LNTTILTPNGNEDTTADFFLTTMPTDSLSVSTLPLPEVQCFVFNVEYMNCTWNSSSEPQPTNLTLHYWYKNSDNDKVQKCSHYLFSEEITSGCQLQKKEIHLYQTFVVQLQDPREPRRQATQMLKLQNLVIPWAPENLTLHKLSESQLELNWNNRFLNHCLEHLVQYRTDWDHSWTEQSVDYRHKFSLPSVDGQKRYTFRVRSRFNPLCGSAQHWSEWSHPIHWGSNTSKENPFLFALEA
# Columns and labels:
# [1] = target: T1, human IL-2Rγ (common cytokine receptor …); assay: SPR off-rate ranking, periplasmic extract on immobilised protein
# Description: SPR was performed to determine dissociation rates using Biacore 3000 instrument (GE Healthcare). Briefly, human and mouse IL-2R proteins were immobilized on carboxylmethyl dextran sensor chip (CM5) at approximately 2500 RUs using amine coupling in acetate buffer (GE Healthcare). The VHH-containing P.E. were loaded with a flow rate of 30 uL/min and the off-rates were measured over a 120s period.
# [2] = target: T1, human IL-2Rγ (common cytokine receptor …); assay: PE binding ELISA, periplasmic extract on coated protein
# Description: In a binding ELISA, human or mouse IL-2Rα, IL-2Rβ and IL-2Rγ proteins were coated directly on maxisorp microtiter plates overnight at 4° C. Free binding sites were blocked using 4% Marvel in PBS for 1 hour. Next, 1:5 dilution of P.E. in 1% Marvel/PBS were added to wells and incubated for 1 hour. […] Binding specificity was determined based on O.D. at 450 nm values compared to negative controls.
Binder,koff [1] [s⁻¹],OD (PE binding ELISA) [2] [OD450 nm]
"FJ1427_P035MP04G07 (VHH, VHH in periplasmic extract; also called clone nr) VHH: QVQLVESGGGWVQVGESLRLSCAPSGRTFVSGIMGWFRQAPGKEREFVARIILNNNSTRYTDSVKGRFTISRDSAKNTMYLQMNTLRPEDTAVYYCAARDRYGSGNSLSPSAYDYWGQGTQVTVSS",0.0091,0.863
"FJ1427_P035MP04C05 (VHH, VHH in periplasmic extract; also called clone nr) VHH: QVQLVESGGGWVQVGESLRLSCAPSGRTFVSGIMGWFRQAPGKEREFVARIILNNNSTRYTDSVKGRFTISRDSAKDTMYLQMNTLRPEDTAVYYCAARDRYGSGNSLSPSAYDYWGQGTQVTVSS",0.00775,1.81
"FJ1427_P035MP04G10 (VHH, VHH in periplasmic extract; also called clone nr; 367) VHH: QVQLVESGGGWVQVGESLRLSCAPSGRTFVSGIMGWFRQAPGKEREFVARIILNSNSTRYTDSAKGRFTISRDSAKNTMYLQMDSLRPEDTAVYYCAARDRYGSGNSLSPSAYDYWGQGTQVTVSS",0.0104,0.839
"FJ1427_P035MP04C12 (VHH, VHH in periplasmic extract; also called clone nr) VHH: EVQLVESGGGWVQVGESLRLSCAPSGRTFVSGIMGWFRQAPGKEREFVARIILNNNSTRYIDSVKGRFTISRDSAKNTMYLQMDSLRPEDTAVYYCAARDRYGSGNSLSPSAYDYWGQGTQVTVSS",0.00732,1.68
"FJ1427_P035MP04B10 (VHH, VHH in periplasmic extract; also called clone nr) VHH: EVQLVESGGGWVQVGESLRLSCAPSGRTFVSGIMGWFRQAPGKEREFVARIILNNNSTRYIDSVKGRFTISRDSAKNTMYLQMDSLRPEDTAVYYCAARDRYGSGNSLSPSAYDYWGQGTQVTVSL",0.00749,1.47
"FJ1427_P035MP04B06 (VHH, VHH in periplasmic extract; also called clone nr; 330) VHH: QLQLVESGGGWVQVGESLRLSCVPSGRTFVSGIMGWFRQAPGKEREFVARIILNNNSTRYTDSVKGRFTISRDSAKNTMYLQMNTLRPEDTAVYYCAARDRYGSGNSLSPSAYDYWGQGTQVTVSS",0.0208,1.45
"FJ1427_P035MP04B02 (VHH, VHH in periplasmic extract; also called clone nr) VHH: QVQLVESGGGWVQVGESLRLSCAPSGRTFVSGIMGWFRQTPGKEREFVARIILNNNSTRYTDSVKGRFTISRDSAKNTMYLQMNTLRPEDTAVYYCAARDRYGSGNSLSPSAYDYWGQGTQVTVSS",0.0285,1.97
"FJ1427_P035MP04B07 (VHH, VHH in periplasmic extract; also called clone nr) VHH: EVQLVESGGGWVQVGESLRLSCAPSGRTFVSGIMGWFRQTPGKEREFVARIILNNNSTRYTDSVKGRFTISRDSAKNTLYLQMNTLRPEDTAVYYCAARDRYGSGNSLSPSAYDYWGQGTQVTVSS",0.0187,1.94
"FJ1427_P035MP04H09 (VHH, VHH in periplasmic extract; also called clone nr; 360) VHH: EVQLVESGGGWVQVGESLRLSCAPSGRTFVSGIMGWFRQAPGKEREFVARIILNNNSTRYTDSVKGRFTISRDSAKNTMYLQMNTLRPEDTAVYYCAARDRYGSGNSLSPSAYDYWGQGTQVTVSS",0.0222,1.87
"FJ1427_P035MP04F10 (VHH, VHH in periplasmic extract; also called clone nr) VHH: QLQLVESGGGWVQVGESLRLSCVPSGRTFVSGIMGWFRQAPGKEREFVARIISNNNSTRYTDSVKGRFTISRDSAKNTMYLQMNTLRPEDTAVYYCAARDRYGSGNSLSPSAYDYWGQGTQVTVSS",0.0147,0.751
"FJ1427_P035MP04A03 (VHH, VHH in periplasmic extract; also called clone nr) VHH: EVQLVESGGGWVQVGESLRLSCAPSGRTFVSGIMGWFRQTPGKEREFVARIILNNNSTRYTDSVKGRFTISRDSAKNTMYLQMNTLRPEDTAVYYCAARDRYGSGNSLSPSAYDYWGQGTQVTVSS",0.00712,1.87
"FJ1427_P035MP04F11 (VHH, VHH in periplasmic extract; also called clone nr) VHH: QVQLVESGGGWVQVGESLRLSCAPSGRTFVSGIMGWFRQTPGKEREFVARIILNNNSTRYTDSVKGRFTISRDSAKNTLYLQMNTLRPEDTAVYYCAARDRYGSGNSLSPSAYDYWGQGTQVTVSS",0.0111,2.01
"FJ1427_P035MP04G08 (VHH, VHH in periplasmic extract; also called clone nr) VHH: QVQLVESGGGWVQVGESLRLSCAPSGRTFVSGIMGWFRQAPGKEREFVARIILNNNSTRYTDSVKGRFTISRDSAKNTMYLQMDSLRPEDTAVYYCAARDRYGSGNSLSPSAYDYWGQGTQVTVSS",0.00892,1.84

# Continued, values first:
koff [1] [s⁻¹],OD (PE binding ELISA) [2] [OD450 nm],Binder
0.0116,1.4,"FJ1427_P035MP04G11 (VHH, VHH in periplasmic extract; also called clone nr) VHH: QVQLVESGGGWVQVGESLRLSCAPSGRTFVSGIMGWFRQAPGEEREFVARIILNNNSTRYTDSVKGRFTISRDSAKNTMYLQMNTLRPEDTAVYYCAARDRYGSGNSLSPSAYDYWGQGTQVTVSS"
0.0204,1.85,"FJ1427_P035MP04A10 (VHH, VHH in periplasmic extract; also called clone nr) VHH: EVQLVESGGGWVQVGESLRLSCAPSGRTFVSGIMGWFRQAPGKEREFVARIILNNNSTRYTDSVKGRFTISRDSAKNTMYLQMNTLRPEDTAVYYCAARDRYGSGNSLSPSAYDYWGQGTQVTVSS"
0.0207,1.93,"FJ1427_P035MP04D09 (VHH, VHH in periplasmic extract; also called clone nr) VHH: QVQLVESGGGWVQVGESLRLSCAPSGRTFVRGIMGWFRQAPGKEREFVARIILNSNSTRYIDSVKGRFTISRDSAKNTMYLQMNSLRPEDTAVYYCAARDRYGSGNSLSPSAYDYWGQGTQVTVSS"
0.00744,0.933,"FJ1427_P035MP04G03 (VHH, VHH in periplasmic extract; also called clone nr) VHH: EVQLVESGGGWVQVGESLRLSCAPSGRTFVSGIMGWFRQAPGKEREFVARIILNNNSTRYTDSVKGRFTISRDSAKNTMYLQMDSLRPEDTAVYYCAARDRYGSGNSLSPSAYDYWGQGTQVTVSS"
0.0103,0.75,"FJ1427_P035MP04B11 (VHH, VHH in periplasmic extract; also called clone nr; 370) VHH: EVQLVESGGGWVQVGESLRLSCAPSGRTFVSGIMGWFRQAPGKEREFVARIILNNNSTRYIDSVKGRFTISRDSAKNTMYLQMDSLRPEDTAVYYCAARDRYGSGNSLSPSAYDYWGQGTQVTVSS"
0.0205,1.33,"FJ1427_P035MP04C10 (VHH, VHH in periplasmic extract; also called clone nr) VHH: QVQLQESGGGWVQVGESLRLSCVPSGRTFVSGIMGWFRQAPGKEREFVARIILNNNSTRYTDSVKGRFTISRDSAKNTMYLQMNTLRPEDTAVYYCAARDRYGSGNSLSPSAYDYWGQGTQVTVSS"
0.00796,1.73,"FJ1427_P035MP04E04 (VHH, VHH in periplasmic extract; also called clone nr) VHH: EVQLVESGGGWVQVGESLRLSCVPSGRTFVSGIMGWFRQAPGKEREFVARIILNSNSTRYTDSVKGRFTISRDSAKNTMYLQMNSLRPEDTAVYYCAARDRYGSGNSLSPSAYDYWGQGTQVTVSS"
0.00795,1.77,"FJ1427_P035MP04F09 (VHH, VHH in periplasmic extract; also called clone nr) VHH: QVQLVESGGGWVQVGESLRLSCAPSGRTFVRGIMGWFRQAPGKEREFVARIILNNNSTRYTDSVKGRFTISRDSAKNTMWLQMDSLRPEDTAVYYCAARDRYGSGNSLSPSAYDYWGQGTQVTVSS"
0.0196,1.9,"FJ1427_P035MP04A07 (VHH, VHH in periplasmic extract; also called clone nr) VHH: QLQLVESGGGWVQVGESLRLSCAPSGRTFVSGIMGWFRQAPGKEREFVARIILNNNSTRYIDSVKGRFTISRDSAKNTMYLQMDSLRPEDTAVYYCAARDRYGSGNSLSPSAYDYWGQGTQVTVSS"
0.00998,1.8,"FJ1427_P035MP04H10 (VHH, VHH in periplasmic extract; also called clone nr) VHH: QVQLVESGGGLVQAGGSLRLSCAPSGRTFVSGIMGWFRQAPGKEREFVARIILNNNSTRYIDSVKGRFTISRDSAKNTMYLQMDSLRPEDTAVYYCAARDRYGSGNSLSPSAYDYWGQGTQVTVSS"
0.00652,1.98,"FJ1427_P035MP04E02 (VHH, VHH in periplasmic extract; also called clone nr; 301) VHH: QVQLVESGGGWVQVGESLRLSCAPSGRTFVSGIMGWFRQTPGKEREFVARIILNNNSTRYTDSVKGRFTISRDSAKNTMYLQMNTLRPEDTAVYYCAARDRYGSGNSLSPSAYDYWGQGTQVTVSS"
0.00844,1.49,"30-MP04C03 (VHH, VHH in periplasmic extract; also called FJ1427_P035MP04C03; clone nr) VHH: EVQLVESGGGWVQDGGSLRLSCALSGRTFVRGIMGWFRQAPGKEREFVARIIWHINSTRYADSVKGRFTISRDSAKNTMYLQMDSLRPEDTAVYYCAARDRYGSGNSLSPSAYDYWGQGTQVTVSS"
0.00688,1.33,"FJ1427_P035MP04E12 (VHH, VHH in periplasmic extract; also called clone nr) VHH: QLQLVESGGGWVQVGESLRLSCAPSGRTFASGIMGWFRQAPGKEREFVARIILNNNSTRYTDSVKGRFTISRDSAKNTMYLQMNTLRPEDTAVYYCAARDRYGSGNSLSPSAYDYWGQGTQVTVSS"
0.0072,1.05,"FJ1427_P035MP04D12 (VHH, VHH in periplasmic extract; also called clone nr; 380) VHH: QVQLVESGGGWVQVGKSLRLSCAPSGRTFVSGIMGWFRQAPGKEREFVARIILNNNSTRYIDSVKGRFTISRDSAKNTMYLQMDSLRPEDTAVYYCAARDRYGSGNSLSPSAYDYWGQGTQVTVSS"
